We go through three proteins from paper PMC11202169, “A Novel Fluorescence-Based Microplate Assay for High-Throughput Screening of hSULT1As Inhibitors” (Biosensors, 2024).

What all share (type): biochemical, human
Holding throughout (details): other: HN-241 4-O-sulfation

Substrate in data set [1]: CCN1C(=O)c2cccc3c(O)ccc(c23)C1=O
As to the kind of experiment: Enzymatic kinetics of hSULT1A3-catalyzed HN-241 4-O-sulfation. Here is the method:
(§1) The enzymatic kinetic parameters of hSULT1As-catalyzed HN-241 4-O-sulfation were measured by incubating increasing concentrations of HN-241 with each of the hSULT1As for a certain period. The fitting equations included Equation (2), the Michaelis–Menten equation, and Equation (3) for enzyme kinetics with substrate inhibition. Related kinetic parameters were fitted by GraphPad Prism 8.0 (San Diego, CA, USA). (2) V=Vmax × [S]/Km+[S] (3) V=Vmax × [S]/Km+[S](1+[S]/Ki)
(§2) [S] refers to the concentration of HN-241, Vmax is the maximum rate of hSULT1As-catalyzed HN-241 4-O-sulfation, Km is the substrate concentration at the half Vmax, and Ki represents the dissociation constant for the binding of the substrate to the inhibitory site.

Substrate in data set [2]: CCN1C(=O)c2cccc3c(O)ccc(c23)C1=O
As to the kind of experiment: Enzymatic kinetics of hSULT1A2-catalyzed HN-241 4-O-sulfation. As to the method: as §1, §2

Substrate in data set [3]: CCN1C(=O)c2cccc3c(O)ccc(c23)C1=O
Description: Enzymatic kinetics of hSULT1A1-catalyzed HN-241 4-O-sulfation. Here is the method:
as §1, §2

The term Km denotes the substrate concentration at which the rate is half of its maximum. In general, Vmax refers to the rate approached at saturating substrate.

B1: hSULT1A3 (Homo sapiens) (protein)
chain: MELIQDTSRPPLEYVKGVPLIKYFAEALGPLQSFQARPDDLLINTYPKSGTTWVSQILDMIYQGGDLEKCNRAPIYVRVPFLEVNDPGEPSGLETLKDTPPPRLIKSHLPLALLPQTLLDQKVKVVYVARNPKDVAVSYYHFHRMEKAHPEPGTWDSFLEKFMAGEVSYGSWYQHVQEWWELSRTHPVLYLFYEDMKENPKREIQKILEFVGRSLPEETMDFMVQHTSFKEMKKNPMTNYTTVPQELMDHSISPFMRKGMAGDWKTTFTVAQNERFDADYAEKMAGCSLSFRSEL
notes: 6-histidine tag (N); TEV site (N); made in house; host or cells: Escherichia coli BL21 (DE3), pET29a(+)
Take B1: in data set [1], the Km was 12.90 ± 1.16 µM, the Vmax turned out to be 0.00881 µmol/min/mg and the Vmax/Km was 683 µL/min/mg.

B2: hSULT1A2 (Homo sapiens) (protein)
chain: MELIQDISRPPLEYVKGVPLIKYFAEALGPLQSFQARPDDLLISTYPKSGTTWVSQILDMIYQGGDLEKCHRAPIFMRVPFLEFKVPGIPSGMETLKNTPAPRLLKTHLPLALLPQTLLDQKVKVVYVARNAKDVAVSYYHFYHMAKVYPHPGTWESFLEKFMAGEVSYGSWYQHVQEWWELSRTHPVLYLFYEDMKENPKREIQKILEFVGRSLPEETVDLMVEHTSFKEMKKNPMTNYTTVRREFMDHSISPFMRKGMAGDWKTTFTVAQNERFDADYAKKMAGCSLSFRSEL
notes: as for B1
As for B2, in data set [2], the Km amounted to 4.47 ± 0.20 µM, the Vmax is 0.00644 µmol/min/mg and the Vmax/Km stood at 1440 µL/min/mg.

B3: hSULT1A1 (Homo sapiens) (protein)
chain: MELIQDTSRPPLEYVKGVPLIKYFAEALGPLQSFQARPDDLLISTYPKSGTTWVSQILDMIYQGGDLEKCHRAPIFMRVPFLEFKAPGIPSGMETLKDTPAPRLLKTHLPLALLPQTLLDQKVKVVYVARNAKDVAVSYYHFYHMAKVHPEPGTWDSFLEKFMVGEVSYGSWYQHVQEWWELSRTHPVLYLFYEDMKENPKREIQKILEFVGRSLPEETVDFVVQHTSFKEMKKNPMTNYTTVPQEFMDHSISPFMRKGMAGDWKTTFTVAQNERFDADYAEKMAGCSLSFRSEL
notes: as for B1
In the case of B3, in data set [3], the Michaelis constant (Km) is 0.91 ± 0.24 µM, the Vmax amounted to 0.0221 ± 0.00443 µmol/min/mg and the Vmax/Km was found to be 24300 µL/min/mg.
